In PMC2174365:
Read-outs that look alike come from different tables or passages of the source.

What was measured:
[1] = target: microtubules (taxol-stabilized; polymer of alpha- and beta-tubulin)
[2] = target: sea urchin sperm flagellar axonemes (sea urchin); test: single-molecule fluorescence motility assay
[3] = target: sea urchin sperm flagellar axonemes (sea urchin); test: single-molecule fluorescence motility assay; remark: listed apart in the source
[4] = target: sea urchin sperm flagellar axonemes (sea urchin); test: single-molecule fluorescence motility assay; remark: listed apart in the source
[5] = target: sea urchin sperm flagellar axonemes (sea urchin); test: optical trapping bead assay

Question: Which results are given for “Cys330/Cys4 Cys-light K560-GFP (neck linker mutant Ser330Cys/Leu4Cys) (from UniProt P33176 1-560) (domain or fragment)”?
Answer: Km(MT) of the microtubule-stimulated ATPase, NEM-modified control [1]: 0.45 μM tubulin; Km(MT) of the microtubule-stimulated ATPase, with 200 μM DTNB [1]: 2.35 μM tubulin; Km(MT) of the microtubule-stimulated ATPase, without DTNB [1]: 0.57 μM tubulin

Question: Which results are given for “Cys334/Cys222 Cys-light K560-GFP (neck linker mutant Glu334Cys/Lys222Cys) (from UniProt P33176 1-560) (domain or fragment)”?
Answer: Km(MT) of the microtubule-stimulated ATPase, NEM-modified control [1]: 1.51 μM tubulin; Km(MT) of the microtubule-stimulated ATPase, with 200 μM DTNB [1]: 2.36 μM tubulin; Km(MT) of the microtubule-stimulated ATPase, without DTNB [1]: 0.62 μM tubulin

Question: Which association time [2] does the source give for “Cys337 Cys-light K560-GFP (neck coiled-coil mutant Ala337Cys) (from UniProt P33176 1-560) (domain or fragment)” here?
Answer: 3.7 s

Question: How did the association time [3] turn out when “Cys337/Cys344 Cys-light K560-GFP (neck coiled-coil double mutant Ala337Cys/Tyr344Cys) (from UniProt P33176 1-560) (domain or fragment)” was run?
Answer: 2.5 s

Question: What about the association time [4] of the same substance?
Answer: 3.8 s

Question: Which results are given for “Cys344 Cys-light K560-GFP (neck coiled-coil mutant Tyr344Cys) (from UniProt P33176 1-560) (domain or fragment)”?
Answer: frequency of movement/binding [2]: 2 /min/μm/nM; frequency of movement/binding [4]: 2 /min/μm/nM; fold change of the dissociation rate under load (with DTNB against without DTNB) [5]: 1.2 fold
